Source: US20190002886A1, “SIGNALING CENTERS OF ERYTHROID DIFFERENTIATION” (THE CHILDREN'S MEDICAL CENTER CORPORATION, priority 2017, published 2019)

Test system: human CD34+ cells
Assay: FACS analysis of erythroid markers CD71 and CD235a on differentiating CD34+ cells
Type: cell-based
Conditions: 25 ng/ml hrBMP4, treated for two days starting from D3 of differentiation
Procedure: To establish the role of BMP signaling in erythroid differentiation, differentiating CD34^+ cells were treated with human recombinant BMP4 (hrBMP4) to activate the pathway, or with dorsomorphin, a known inhibitor of BMP signaling. Knowing that erythroid lineage commitment occurs around D3, differentiating cells were treated for two days starting from D3, to test the effects of these signals on erythrocyte commitment. […] Human CD34+ cells, isolated from peripheral blood of granulocyte colony-stimulating factor-mobilized healthy volunteers, were obtained from the Fred Hutchinson Cancer Research Center. The cells were maintained and differentiated as previously described (Sankaran et al., 2008b; Trompouki et al.,2011). Control and treated stage-matched CD34 cells were washed in PBS and stained with propidium iodide (PI), 1:60 APC-conjugated CD235a (eBioscience, clone HIR2, 17-9987-42), 1:60 FITC-conjugated CD71 (eBioscience, OKT9, 11-0719-42), 1:60 PE-conjugated CD41a (eBioscience, HIP8, 12-0419-42) and 1:60 PE-conjugated CD11b (eBioscience, ICRF44, 12-0118-42). BD Bioscience LSR II flow cytometer was used to record raw FACS data, which were analyzed subsequently using FlowJo 8.6.9 10.0.7 (TreeStar). Human CD34^+ cells, isolated from peripheral blood of granulocyte colony-stimulating factor mobilized healthy volunteers, were purchased from the Fred Hutchinson Cancer Research Center. […]

B1: BMP4: human recombinant BMP4 (R&D) used to activate the BMP pathway (protein)
chain: MIPGNRMLMVVLLCQVLLGGASHASLIPETGKKKVAEIQGHAGGRRSGQSHELLRDFEATLLQMFGLRRRPQPSKSAVIPDYMRDLYRLQSGEEEEEQIHSTGLEYPERPASRANTVRSFHHEEHLENIPGTSENSAFRFLFNLSSIPENEVISSAELRLFREQVDQGPDWERGFHRINIYEVMKPPAEVVPGHLITRLLDTRLVHHNVTRWETFDVSPAVLRWTREKQPNYGLAIEVTHLHQTRTHQGQHVRISRSLPQGSGNWAQLRPLLVTFGHDGRGHALTRRRRAKRSPKHHSQRARKKNKNCRRHSLYVDFSDVGWNDWIVAPPGYQAFYCHGDCPFPLADHLNSTNHAIVQTLVNSVNSSIPKACCVPTELSAISMLYLDEYDKVVLKNYQEMVVEGCGCR
- increase in erythroid cell counts (CD71 and CD235a): 1.5-2 fold
